These results are taken from patent US20140037641A1.

The target of this assay is MAb E2-9. As to the kind of experiment: inhibition ELISA: soluble Fba peptide against plate-coated Fba-MAP for MAb E2-9.

B1: Fba peptide (…), synthetic 14 mer from Candida albicans fructose-bisphosphate aldolase (peptide)
peptide: YGKDVKDLFDYAQE
On to B1, for which the IC50 stood at 10 µg/mL.

One may read the IC50 as the concentration at which inhibition is half-maximal. Read a high IC50 as weaker potency.
